These results are taken from patent US20200121801A1, “DRUG DELIVERY CONJUGATES CONTAINING UNNATURAL AMINO ACIDS AND METHODS FOR USING” (priority 2012, published 2020).

The test system of data set [1] is experimental autoimmune encephalomyelitis. The data set is described as follows: Autoimmune encephalomyelitis (EAE) model. It counts as in vivo, rats. The conditions noted are these: when dosed alone. On the procedure:
METHOD. Autoimmune Encephalomyelitis (EAE) Model. EAE is induced in rats by immunization against 25 μg of guinea pig myelin basic protein (MBP) formulated with CFA containing 1 mg of grounded Mycobacterium tuberculosis H37Ra. Pertussis toxin is given intraperitoneally (1 μg/rat) to enhance the organ-specific autoimmunity. Starting 8 days after induction, rats are divided into […]: (1) untreated control (n=8), (2) test compound (n=7), and (3) test compound plus competitor compound (n=7), such as EC0923 competition. All treatments start on day 8 after EAE induction. The animals in the EAE control group are left untreated. […] The clinical severity of EAE is monitored on a daily basis and graded on a scale of 0 to 5 per animal. The clinical signs of ascending paralysis of EAE rats are divided into a 0-5 scale: 0=No disease, 0.5=distal limp tail, 1=limp tail, 2=mild paraparesis; ataxia-weakened hind limbs, 3=moderate paraparesis; hind limbs paresis, 4=complete hind limb paralysis, 5=complete hind limb paralysis and incontinence (euthanasia). On day 16, the animals are euthanized and brain and spinal cords are fixed in formalin for histology.

The nature of data set [2]: Plasma stability / free drug release after s.c. dose (EC1496 vs EC0746). Type of data set: in vivo, rats. The conditions noted are these: 500 nmol/kg s.c. On the procedure:
METHOD. Human serum stability. Compounds described herein are tested in human serum for stability using conventional protocols and methods. Briefly, test compound is administered to the test animal, such as by subcutaneous injection. The plasma concentration of the conjugate, and optionally one or more metabolites, is monitored over time. The results are graphed to determine Cmax, Tmax, half-life, and AUC for the test compound and metabolites.
EXAMPLE. […] EC1495 and EC0746 (comparator compound) are each administered at 500 nmol/kg by subcutaneous injection. The plasma concentration of the conjugate and the metabolites (aminopterin and aminopterin hydrazide) are monitored over time. […] As also shown in the following table, free drug is released as the parent aminopterin and the hydrazide derivative (EC0470).

Data set [3] in a line: Relative whole animal toxicity in folate deficient rats. Type of data set: in vivo. The note with it: 3 μmol/kg i.v. BIW, 2 weeks. On the procedure:
EXAMPLE. […] Test compounds are administered i.v. at equivalent doses to folate deficient rats.

For `N=c1[nH]c(N)nc2ncc(CNc3ccc(C(=O)N[C@@H](CCC(=O)NNC(=O)OCCSSC[C@@H](NC(=O)[C@H](CCC(=O)NC[C@H](O)[C@@H](O)[C@H](O)[C@H](O)CO)NC(=O)[C@@H](CCC(=O)O)NC(=O)[C@H](CCC(=O)NC[C@H](O)[C@@H](O)[C@H](O)[C@H](O)CO)NC(=O)[C@@H](CCC(=O)O)NC(=O)[C@H](CCC(=O)NC[C@H](O)[C@@H](O)[C@H](O)[C@H](O)CO)NC(=O)CC[C@@H](NC(=O)c4ccc(NCc5cnc6nc(N)[nH]c(=O)c6n5)cc4)C(=O)O)C(=O)O)C(=O)O)cc3)nc12` [EC1496], the treatment-related weight loss entry in data set [1] is listed as “not observed”. In addition, in data set [2], the “Cmax of conjugate, comparison” value was “higher Cmax than EC0746” and the “half-life, comparison with EC0746” value is “shorter half-life”. Also, in data set [2] (plasma), the “Free drug released (%): AMT” value was 5.13%, the “Free drug released (%): AMT-hydrazide (EC0470)” value turned out to be 3.15% and the “Free drug released (%): Total” value turned out to be 8.28%. Further, the “toxicity relative to comparative example EC0746” value in data set [3] is “less toxic”.
